Measurements taken from the domain aggregation screens of Martell et al. (2025).

Experiment: soluble fraction after stress (log2 fold change); higher = more stays soluble; pooled small domains, quantitative proteomics
Conditions: stress: 50 degC
Procedure, shortened: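 After stress at 50°C, the amount of each protein still soluble was measured. This was done on pooled custom libraries of small protein domains, using high-throughput quantitative proteomics. The figure given is a base-two log fold change and stands for aggregation propensity, with higher values meaning more protein stays in solution.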

For “HMPSKKHARWIELEARKFMADNEDAVSDLHELRTRAANFAALKTSTLPVDQHRAIVAGFVARVNELGRRI”, which “soluble fraction (log2)” value is on record?
Its value is -0.631.

For “HMFSNATISGLKAGALVRVYNISGVAVSTLTADAEGKVSVDLNNLPKGVYILSTPSKSFKVLN”, which “soluble fraction (log2)” value is on record?
Its value is -0.54.

Which “soluble fraction (log2)” value does the source give for “HMGNLIIFYDEGIGSGPLMKAVNDSGVSLVYEYKNLHGIAIRPSAKTNIQDAIAYFQKVNGVLSVEQ” here?
Its value is -2.52.

For “HMLFYSDLVRLISFAEATLGKNEFETWYMSHHQGMKYTEIAIALGISVRTVEDRIARTKNHFRKI”, which “soluble fraction (log2)” value is on record?
The value was -0.494.

With “HMRDQQHNIYLLEKAKRLYEEFLGDNRHIIAAEMARFEAVLETQDAIIIQRAQQQFSEFLNRFDG” as the sequence, how does the “soluble fraction (log2)” value read?
Its value is -1.63.

With “HMSTPAKVTPTNPIVKQLFNAAETQIKNKDIQNAIASYEKADTLTTDEKVKQYIHYQLSTLKDDN” as the sequence, how does the “soluble fraction (log2)” value read?
Its value is -0.14.

With “HMTDIVPNLIGKSLKDAIQSVEKSNLKAIFDGHGIVVSQQPRPGSPIPARKIMKVTLSPDYR” as the sequence, how does the “soluble fraction (log2)” value read?
The value was 0.011.

Which “soluble fraction (log2)” value does the source give for “HMILALAISSEEDDARIYATYADRLREAYPASARVFEGMVDEEHEHRRRLIDLFQRRFGDTIPLVRREHV” here?
The value was -0.61.

Which “soluble fraction (log2)” value does the source give for “HMNYVFVLNEHGVRQTSYVVGLHADTLEKTEKLAKQTYPTSTIISGDSEMQSQFISGKAYVNGEFVDP” here?
Its value is -0.471.

With “HMSGAWEVGLLRQFTDWMGTQYNAYAGRNFDAITVAQVAEKNPELLTPFVESFFKERVEPALAAG” as the sequence, how does the “soluble fraction (log2)” value read?
Its value is -0.849.

Which “soluble fraction (log2)” value does the source give for “HMHPEITLHPVRANIYSISVKNATSMEIYSVSGQLVGIRELKEGTNTLDLTGYINGVYIVNLQNKAFKLVK” here?
The value was -1.94.

With “HMATQMSSARRGIATDEMKQVAKDEDVTLDWLLPKIAIGSIIIPSNNVRPQKIHNVGIGKGMKTKVN” as the sequence, how does the “soluble fraction (log2)” value read?
Its value is 0.116.

For “HMLQMSDSSALEAILDEVLGSEMGQKALSDIEAGNMKAMGFIIGQSMKLSKGQANPQIINKLLQQRLK”, which “soluble fraction (log2)” value is on record?
Its value is -0.000287.

Which “soluble fraction (log2)” value does the source give for “HMASINRIENKNGKVVYRIIVSLGYDKQGKKLKKTITYNVNQTATKKQQENEALKYALDIEDKIKNGHD” here?
Its value is -1.44.

Which “soluble fraction (log2)” value does the source give for “HMSRQREWIYDYIQSHPDRHMSVEEIYEGLKAENREVSVATVYRNLKILQDENRIASLMLESGKQVFDK” here?
The value was -0.371.

Which “soluble fraction (log2)” value does the source give for “HMEVLSYYGSRGQEVVNIQTKLKQWGYYKGNIDGIFGNLTYQAVREFQRKNGLKVDGIVGPETLAALGLPT” here?
The value was -0.187.

With “HMQKRDQKKRANMLDSLKVGTRIVTIGGIFGEIAKIKDDRIRIKVAEDVEIWIRRAAVGTVIT” as the sequence, how does the “soluble fraction (log2)” value read?
The value was -0.207.

For “HMSVPVNAPMPGTILDIKVKAGAAVKAGDVVMILEAMKMENEISAPQDGTIASIDVRKGDTVNSGDVLYTM”, which “soluble fraction (log2)” value is on record?
Its value is 0.0456.

With “HMEISEILNPPLVTAMAERYPEVDVSYYRDKYILYYESREHKITDHRRNFEKWLLVESQKEEN” as the sequence, how does the “soluble fraction (log2)” value read?
The value was -1.07.

For “HMLPDPIYEAFMMASDLGIVVRNGPQYAYPDKETGEVLYKALGREKFLQLMKDNDGLLTSIETEIRSM”, which “soluble fraction (log2)” value is on record?
The value was -1.18.

Which “soluble fraction (log2)” value does the source give for “HMAPIEVPYNVFRQQVVEGNVESVATRADTVQGYFETPVTLPARPDAAAAEPVTVERFSTTLPSF” here?
Its value is 0.142.

Which “soluble fraction (log2)” value does the source give for “HMPIGENIKRLRIMHGLSQKELAQIAGVSDKAVSTWENGTKEPRMGAVQKITGYFGLKKSNLIEDNGL” here?
The value was -0.0331.

For “HMSDNHYLLEIFLADLKSDEKFIRELAIFQLHHHIESDKVRAELKAAAETESDPYLKGMIESLLSSTS”, which “soluble fraction (log2)” value is on record?
Its value is -0.943.

For “HMKQETLNEIGTKIRKLRESKNLSIQEFADKLEMEYNNVIRIEKGRTNFTIGTLVKIANSLEVNLKDI”, which “soluble fraction (log2)” value is on record?
The value was -0.78.

Which “soluble fraction (log2)” value does the source give for “HMTPQEQWNNAYLLAKDYYDANGNLDIDEKYKTKDGFELGSWLTTQRNVYKRGKLSPEKTKKLEEIGISF” here?
Its value is 0.128.

For “HMDAKIKDYADAYAKMDPQQAASLFNNMTTGSLDLVAKILENIPANKRAAILEKMDVNAAAQVTEKMR”, which “soluble fraction (log2)” value is on record?
Its value is 0.117.

With “HMKIPQFAVIKQYLEQQIKTAQWAPGRQIPTEQSLADTFSVSRMTARRAVQQLADAGLLERTQGSGTFVAD” as the sequence, how does the “soluble fraction (log2)” value read?
The value was -0.145.

With “HMQTKEVDYGTFMSMIDEKNIGTVEIGDSQIVFTDKDNKNLYETGVMNDPDLAQRLHDAGATFSS” as the sequence, how does the “soluble fraction (log2)” value read?
The value was 0.201.

For “HMLISAESVKRRLEMIRHLILLGDYEDVTAQVIKLNPAANEYKLTPIIEELNGGKYQEALEKINSYLSKF”, which “soluble fraction (log2)” value is on record?
Its value is 0.0802.

For “HMGDERDRLLLARGKRIYQELIGSDRENVAAALREFEAVLAVNNRRAIHVMRQRLAELFGVYEEFLNEEFL”, which “soluble fraction (log2)” value is on record?
Its value is -2.77.

For “HMATGIKAVDNVFGWMNLEQVAKTVGLDIPSVLRASGLPEDTPVDISIKKIPGVDDEELKDSLRQYIEKS”, which “soluble fraction (log2)” value is on record?
The value was 0.0213.

With “HMKIKAKYTTDFGIRIYAPKPGKNYWRISYVDLDGKLRDTTATSEKTALDKSAEIEVLLRNN” as the sequence, how does the “soluble fraction (log2)” value read?
Its value is -1.89.

For “HMSNVDYSQFKKDTVVEHTKFGRGIIIQTSGDGEDKIAAIAFKGLGVKRFSLAIAAASLKIIGKNDE”, which “soluble fraction (log2)” value is on record?
The value was -0.0817.

For “HMDKMVAVPNVRGIEASEAEATLIAQGLFVEVEKSDSEDANVAYGEVYAQTPKAGNRVEEGTTITIKVRTE”, which “soluble fraction (log2)” value is on record?
Its value is 0.0555.

Which “soluble fraction (log2)” value does the source give for “HMHTGLTNYEYKQIKSSLLKILTQSESMRLGELVDKVDQFESEKVTTVIRFLVGNEELMLFDDTLTLKKQL” here?
Its value is 0.0246.

For “HMTIDTSNDLLNQITEATSKGPISILELKDQLNVNASDIEGELRTLIDQHLVFLKDGMLQVIPFD”, which “soluble fraction (log2)” value is on record?
Its value is -0.0624.

Which “soluble fraction (log2)” value does the source give for “HMAPVLTATVNTTSGKLNMRAAASATSAKLTSIPRGATVTVLEKGTTWSRISYGGYTGYVMTQYLKFD” here?
Its value is -0.167.

For “HMKTTVEVSPIARPGAVASGSVKFGSGVTAEWMLDQYGRLGLDKPTGKPTEQDIKEFQIELQKAL”, which “soluble fraction (log2)” value is on record?
The value was 0.165.
